The results in this text go back to article PMC11525196 (Nature, 2024).

Like-named read-outs stand apart in the source and are kept apart here.

Series [1] deals with the molecule itself. Briefly: cryo-EM structure.
Series [2] deals with the molecule itself. Description: cryo-EM structure. The source holds these as a separate data set.

B1: LYCHOS (GPR155), wild type, C-terminal Flag tag, expressed in Sf9 cells (natural protein, human)
chain: MNSNLPAENLTIAVNMTKTLPTAVTHGFNSTNDPPSMSITRLFPALLECFGIVLCGYIAGRANVITSTQAKGLGNFVSRFALPALLFKNMVVLNFSNVDWSFLYSILIAKASVFFIVCVLTLLVASPDSRFSKAGLFPIFATQSNDFALGYPIVEALYQTTYPEYLQYIYLVAPISLMMLNPIGFIFCEIQKWKDTQNASQNKIKIVGLGLLRVLQNPIVFMVFIGIAFNFILDRKVPVYVENFLDGLGNSFSGSALFYLGLTMVGKIKRLKKSAFVVLILLITAKLLVLPLLCREMVELLDKGDSVVNHTSLSNYAFLYGVFPVAPGVAIFATQFNMEVEIITSGMVISTFVSAPIMYVSAWLLTFPTMDPKPLAYAIQNVSFDISIVSLISLIWSLAILLLSKKYKQLPHMLTTNLLIAQSIVCAGMMIWNFVKEKNFVGQILVFVLLYSSLYSTYLWTGLLAISLFLLKKRERVQIPVGIIIISGWGIPALLVGVLLITGKHNGDSIDSAFFYGKEQMITTAVTLFCSILIAGISLMCMNQTAQAGSYEGFDQSQSHKVVEPGNTAFEESPAPVNEPELFTSSIPETSCCSCSMGNGELHCPSIEPIANTSTSEPVIPSFEKNNHCVSRCNSQSCILAQEEEQYLQSGDQQLTRHVLLCLLLIIGLFANLSSCLWWLFNQEPGRLYVELQFFCAVFNFGQGFISFGIFGLDKHLIILPFKRRLEFLWNNKDTAENRDSPVSEEIKMTCQQFIHYHRDLCIRNIVKERRCGAKTSAGTFCGCDLVSWLIEVGLASDRGEAVIYGDRLVQGGVIQHITNEYEFRDEYLFYRFLQKSPEQSPPAINANTLQQERYKEIEHSSPPSHSPKT
Turning to B1, the “stoichiometry N” value in the series “cryo-EM structure [1]” came out at 2.

B2: LYCHOS (GPR155), wild type, C-terminal Flag tag, expressed in Expi293F cells (natural protein, human)
chain: MNSNLPAENLTIAVNMTKTLPTAVTHGFNSTNDPPSMSITRLFPALLECFGIVLCGYIAGRANVITSTQAKGLGNFVSRFALPALLFKNMVVLNFSNVDWSFLYSILIAKASVFFIVCVLTLLVASPDSRFSKAGLFPIFATQSNDFALGYPIVEALYQTTYPEYLQYIYLVAPISLMMLNPIGFIFCEIQKWKDTQNASQNKIKIVGLGLLRVLQNPIVFMVFIGIAFNFILDRKVPVYVENFLDGLGNSFSGSALFYLGLTMVGKIKRLKKSAFVVLILLITAKLLVLPLLCREMVELLDKGDSVVNHTSLSNYAFLYGVFPVAPGVAIFATQFNMEVEIITSGMVISTFVSAPIMYVSAWLLTFPTMDPKPLAYAIQNVSFDISIVSLISLIWSLAILLLSKKYKQLPHMLTTNLLIAQSIVCAGMMIWNFVKEKNFVGQILVFVLLYSSLYSTYLWTGLLAISLFLLKKRERVQIPVGIIIISGWGIPALLVGVLLITGKHNGDSIDSAFFYGKEQMITTAVTLFCSILIAGISLMCMNQTAQAGSYEGFDQSQSHKVVEPGNTAFEESPAPVNEPELFTSSIPETSCCSCSMGNGELHCPSIEPIANTSTSEPVIPSFEKNNHCVSRCNSQSCILAQEEEQYLQSGDQQLTRHVLLCLLLIIGLFANLSSCLWWLFNQEPGRLYVELQFFCAVFNFGQGFISFGIFGLDKHLIILPFKRRLEFLWNNKDTAENRDSPVSEEIKMTCQQFIHYHRDLCIRNIVKERRCGAKTSAGTFCGCDLVSWLIEVGLASDRGEAVIYGDRLVQGGVIQHITNEYEFRDEYLFYRFLQKSPEQSPPAINANTLQQERYKEIEHSSPPSHSPKT
For the protein B2, in “cryo-EM structure [2]”, the “stoichiometry N” value was 2.

The stoichiometry N is the number of molecules, sites or subunits per partner or assembly.
